Tests used:
[1] = molecular target: ctPan2 PID (Pan3 interaction domain) as used for surface plasmon resonance and isothermal titration calorimetry (Chaetomium thermophilum); assay: SPR; ctPan3 PKC with ctPan2 PID; who was immobilised is not shown (Supplementary Fig S7A–C)
[2] = molecular target: ctPan2 PID (Pan3 interaction domain) as used for surface plasmon resonance and isothermal titration calorimetry (Chaetomium thermophilum); assay: ITC; ctPan3 PKC with ctPan2 PID; low protein concentrations, which limits the accuracy of the Kd
scPan3 zinc finger [3] = molecular target: T1, scPan3 zinc finger (Saccharomyces cerevisiae, UniProt P36102 1-41); assay: NMR titration; Zn2+; apparent Kd per residue: 62 ± 4, 93 ± 11, 100 ± 13 (peaks of Trp8, Ala9, Asn16); FP: 10 mM Tris pH 8.0, 50 mM NaCl, 1 mM MgCl2, 5 mM beta-mercaptoethanol, 20 nM RNA, temperature not stated; EMSA: deadenylation assay buffer (composition not in material), 0.1-3 uM complex, 40 ng RNA in 10 ul, 15 min RT; NMR: 150 uM protein, 150 uM RNA (HSQC); settings: protein: recombinant; tags: lipoyl domain/His fusion removed by TEV
T1 chain: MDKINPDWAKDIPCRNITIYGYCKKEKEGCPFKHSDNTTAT

ctPan3 PKC [4] = molecular target: T2, ctPan3 PKC (Chaetomium thermophilum, UniProt G0S0Y3 205-640); assay: fluorescence polarization; 1 mM Mg2+; FP: 10 mM Tris pH 8.0, 50 mM NaCl, 1 mM MgCl2, 5 mM beta-mercaptoethanol, 20 nM RNA, temperature not stated; EMSA: deadenylation assay buffer (composition not in material), 0.1-3 uM complex, 40 ng RNA in 10 ul, 15 min RT; NMR: 150 uM protein, 150 uM RNA (HSQC); settings: protein: recombinant; tags: GST-TEV construct (pGEX-TEV); chain copies: 2; label: 5' Cy3
T2 sequence: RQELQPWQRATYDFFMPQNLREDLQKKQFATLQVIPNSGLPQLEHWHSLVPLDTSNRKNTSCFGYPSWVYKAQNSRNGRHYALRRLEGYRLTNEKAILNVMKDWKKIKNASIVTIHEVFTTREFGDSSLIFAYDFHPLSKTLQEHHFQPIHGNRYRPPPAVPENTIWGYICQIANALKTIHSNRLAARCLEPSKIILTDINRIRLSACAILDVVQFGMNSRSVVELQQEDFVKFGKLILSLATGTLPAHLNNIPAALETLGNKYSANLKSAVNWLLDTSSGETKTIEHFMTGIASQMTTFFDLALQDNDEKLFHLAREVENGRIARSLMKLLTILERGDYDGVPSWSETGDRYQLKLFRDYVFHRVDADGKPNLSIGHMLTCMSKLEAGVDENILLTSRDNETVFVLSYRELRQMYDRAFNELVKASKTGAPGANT

ctPan2 E899A;ctPan3 PKC = ctPan2 E899A;ctPan3 PKC (Chaetomium thermophilum;Chaetomium …, UniProt G0SAK8;G0S0Y3 1-1170;205-640, E899A|); assay: as above; settings: protein: recombinant;recombinant; tags: Strep-II, His;GST-TEV construct (pGEX-TEV); copies: 1;2; label: 5' Cy3
scPan3 zinc finger [5] = molecular target: T1, scPan3 zinc finger; assay: NMR chemical shift perturbation; Zn2+; negligible changes; FP: 10 mM Tris pH 8.0, 50 mM NaCl, 1 mM MgCl2, 5 mM beta-mercaptoethanol, 20 nM RNA, temperature not stated; EMSA: deadenylation assay buffer (composition not in material), 0.1-3 uM complex, 40 ng RNA in 10 ul, 15 min RT; NMR: 150 uM protein, 150 uM RNA (HSQC); settings: protein: recombinant; tags: lipoyl domain/His fusion removed by TEV
ctPan3 PKC [6] = molecular target: T2, ctPan3 PKC; assay: fluorescence polarization; 1 mM Mg2+; possible G-quadruplex complicates interpretation; FP: 10 mM Tris pH 8.0, 50 mM NaCl, 1 mM MgCl2, 5 mM beta-mercaptoethanol, 20 nM RNA, temperature not stated; EMSA: deadenylation assay buffer (composition not in material), 0.1-3 uM complex, 40 ng RNA in 10 ul, 15 min RT; NMR: 150 uM protein, 150 uM RNA (HSQC); settings: protein: recombinant, tags: GST-TEV construct (pGEX-TEV), chain copies: 2, label: 5' Cy3
[7] = molecular target: T3, Saccharomyces cerevisiae Pan2 (scPan2), full length, of the recombinant scPan2–Pan3 complex (Saccharomyces cerevisiae, UniProt P53010 1-1115); assay: native MS; nanoESI-MS of the purified recombinant scPan2–Pan3 complex (5.5 mg/ml), buffer-exchanged into 200 mM ammonium acetate pH 8.0; settings: both partners purified
T3 construct: Pan2, Saccharomyces cerevisiae
T3 sequence (looked up): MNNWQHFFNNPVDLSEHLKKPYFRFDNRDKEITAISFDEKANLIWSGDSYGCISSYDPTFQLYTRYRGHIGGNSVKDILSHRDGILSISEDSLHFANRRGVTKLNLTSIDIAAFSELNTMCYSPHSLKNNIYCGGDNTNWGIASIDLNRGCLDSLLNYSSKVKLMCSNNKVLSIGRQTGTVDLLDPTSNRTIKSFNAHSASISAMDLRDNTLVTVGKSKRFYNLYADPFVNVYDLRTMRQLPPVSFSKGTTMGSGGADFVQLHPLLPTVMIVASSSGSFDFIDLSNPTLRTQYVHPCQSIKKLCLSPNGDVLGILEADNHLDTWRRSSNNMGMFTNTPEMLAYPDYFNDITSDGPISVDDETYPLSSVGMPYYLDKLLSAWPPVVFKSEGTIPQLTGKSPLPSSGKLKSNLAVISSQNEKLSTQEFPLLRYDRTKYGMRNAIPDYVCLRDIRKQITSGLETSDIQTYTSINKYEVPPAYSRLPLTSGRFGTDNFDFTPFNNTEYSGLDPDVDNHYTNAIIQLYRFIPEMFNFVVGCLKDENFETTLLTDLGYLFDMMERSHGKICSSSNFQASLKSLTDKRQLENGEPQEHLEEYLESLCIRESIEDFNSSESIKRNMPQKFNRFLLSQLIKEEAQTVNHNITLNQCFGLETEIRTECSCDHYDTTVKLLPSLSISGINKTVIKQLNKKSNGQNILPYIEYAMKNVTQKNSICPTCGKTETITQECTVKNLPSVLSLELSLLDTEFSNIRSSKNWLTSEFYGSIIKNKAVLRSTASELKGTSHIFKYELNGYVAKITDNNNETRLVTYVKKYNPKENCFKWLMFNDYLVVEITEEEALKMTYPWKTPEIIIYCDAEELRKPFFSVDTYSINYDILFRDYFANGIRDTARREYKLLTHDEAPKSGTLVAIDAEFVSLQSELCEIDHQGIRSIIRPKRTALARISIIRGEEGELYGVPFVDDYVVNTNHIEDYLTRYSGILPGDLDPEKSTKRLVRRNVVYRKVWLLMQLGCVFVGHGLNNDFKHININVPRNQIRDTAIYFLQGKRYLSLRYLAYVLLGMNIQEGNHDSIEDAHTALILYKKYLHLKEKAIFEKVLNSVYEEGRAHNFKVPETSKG

[8] = molecular target: the molecule itself; assay: as above

Question: Which Kd [1] does the source give for “ctPan3 pseudokinase/C-terminal domain (PKC, residues 205–640), purified from E. coli (from UniProt G0S0Y3 205-640) (domain or fragment)” here?
Answer: Its Kd is 10 nM.

Question: And the Kd [2]?
Answer: The Kd was 50 nM.

Question: And the dH [2]?
Answer: Its dH is -30 kcal/mol.

Question: What about the stoichiometry N (Pan2 chain per Pan3 dimer) [2] of the same molecule?
Answer: Its stoichiometry N (Pan2 chain per Pan3 dimer) is 1.

Question: Which Kd (scPan3 zinc finger [3]) does the source give for AAAAAAAAAAAAAAA (ssRNA) [polyA15 RNA (NMR)] here?
Answer: The Kd was about 77.5 µM.

Question: AAAAAAAAAAAAAAAAAAAAAAAAA (ssRNA) [Cy3-A25 RNA] was tested. Which Kd (ctPan3 PKC [4]) did it give?
Answer: Its Kd is 620 ± 60 nM.

Question: What about the Kd (ctPan2 E899A;ctPan3 PKC) of the same molecule?
Answer: Its Kd is 270 ± 20 nM.

Question: With UUUUUUUUUUUUUUU (ssRNA) [Cy3-U15 RNA] as the molecule, how does the Kd (ctPan3 PKC [4]) read?
Answer: Its Kd is 1600 ± 600 nM.

Question: With AAAAAAAAAAAAAAA (ssRNA) [Cy3-A15 RNA] as the molecule, how does the Kd (ctPan3 PKC [4]) read?
Answer: Its Kd is 2100 ± 1400 nM.

Question: Does UUUUUUUUUUUUUUU (ssRNA) [U15 RNA (NMR)] bind (scPan3 zinc finger [5])?
Answer: Result: no binding

Question: For GGGGGGGGGGGGGGG (ssRNA) [Cy3-G15 RNA], which Kd (ctPan3 PKC [6]) is on record?
Answer: The Kd was 550 ± 50 nM.

B1: Saccharomyces cerevisiae Pan3 (scPan3), full length, of the recombinant scPan2–Pan3 complex (natural protein, UniProt P36102 1-679, looked up)
chain: MDKINPDWAKDIPCRNITIYGYCKKEKEGCPFKHSDNTTATTINDVPPPIDVGEATTPTMTSVPKFNAKVSASFTPMTVGSDSLTTVTNTTSAATNATGNIAMAATSATASTVNPMINPIVNSSLVNNNNNNSNISISIPTTASSSNYDPFNAPIFTPSSTSSIHTNANAHSFPFPSIANSGGININATDDNSNNMSMANNVPPPMQPPPIESSNLKYPRIYPPPHSLLQYHLYAPEQPSSLKSLLKPNERSADQLFIPNNIREDLTKKNLSILQVFPSSGKVIPSIVQDYFNLVPLNFNNNDFLNKTTLFKVFSNYDGKAYVLKRLPNIDKSMNPNKISKIYQIWSKINCTNLIKFRDIFQTTKFGDLSICLVFDYYPNSLSLYDYHFVNFPKFPITNNYLWIYLVQLTNVINSIHSQNLSIGNTLNWRKVLITGDPGRIKLSHCNFMDLLFNDDTDTVVSSGGSTIEGQQQLDYKYLGELLFNLSINIENSNNNTAPKEYRLEEITPQSIDDMRQIDDKFKDVLKYLISDNGDSKKSIHDLTSHFYDKMFMVLESSQTYTEYMESVLSRELENGRLFRLVNKLNCIFGRIESRIDINWSESGTKFPIILFYDYVFHQVDSNGKPIMDLTHVLRCLNKLDAGIQEKLMLVTPDELNCIIISYKELKDLIESTFRSITQ
notes: Pan3, Saccharomyces cerevisiae; Two copies stand in the scPan2–Pan3 heterotrimer by nanoESI-MS
Question: Which results are given for B1?
Answer: stoichiometry N [7]: 2 scPan3 per scPan2; binding result [8]: binds

Question: Which Kd (ctPan3 PKC [4]) does the source give for CCCCCCCCCCCCCCC (ssRNA) [Cy3-C15 RNA] here?
Answer: Its Kd is 2200 ± 1700 nM.

Question: Does CCCCCCCCCCCCCCC (ssRNA) [C15 RNA (NMR)] bind (scPan3 zinc finger [5])?
Answer: Result: no binding

— article PMC4158885 (The EMBO Journal, 2014)
